Test results taken from patent publication US20240279281A1, “Peptide Inhibitors of Interleukin-23 Receptor” (Janssen Pharmaceutica NV, priority 2023, published 2024).
Starred links: 1 amine or outer side, 2 acyl side, 3 side chain; linkers in the order of their positions; H or OH if unused. Positions of bridges follow the written chain, without caps; N, C: chain ends. Non-standard residues stand in square brackets, D forms with d. No end group written: not given here. X3 = 4‑(2-(4-(2-amino-2-carboxyethyl)phenoxy)ethyl)‑4‑methylmorpholin‑4‑ium, C[N+]1(CCOc2ccc(CC(N[*:1])C(=O)[*:2])cc2)CCOCC1; X5 = 2‑amino‑3‑(3-carbamoyl-1H-pyrazol-4-yl)propanoic acid, NC(=O)c1n[nH]cc1CC(N[*:1])C(=O)[*:2]; X6 = 2‑amino‑3‑(4-carbamoyl-1H-imidazol-1-yl)propanoic acid, NC(=O)c1cn(CC(N[*:1])C(=O)[*:2])cn1; 2Nal(6-OH) = N[C@@H](Cc1ccc2cc(O)ccc2c1)C(=O)O; Trp(7-Me) = Cc1cccc2c(C[C@H](N)C(=O)O)c[nH]c12; AEF = NCCOc1ccc(C[C@H](N)C(=O)O)cc1; 3Pal = N[C@@H](Cc1cccnc1)C(=O)O; Pen = CC(C)(S)[C@H](N)C(=O)O; lipid = not defined here; Thp = NC1(C(=O)O)CCOCC1; Sar = CNCC(=O)O

T1: interleukin-23 receptor (IL-23R), Q5VWK5
T1 chain: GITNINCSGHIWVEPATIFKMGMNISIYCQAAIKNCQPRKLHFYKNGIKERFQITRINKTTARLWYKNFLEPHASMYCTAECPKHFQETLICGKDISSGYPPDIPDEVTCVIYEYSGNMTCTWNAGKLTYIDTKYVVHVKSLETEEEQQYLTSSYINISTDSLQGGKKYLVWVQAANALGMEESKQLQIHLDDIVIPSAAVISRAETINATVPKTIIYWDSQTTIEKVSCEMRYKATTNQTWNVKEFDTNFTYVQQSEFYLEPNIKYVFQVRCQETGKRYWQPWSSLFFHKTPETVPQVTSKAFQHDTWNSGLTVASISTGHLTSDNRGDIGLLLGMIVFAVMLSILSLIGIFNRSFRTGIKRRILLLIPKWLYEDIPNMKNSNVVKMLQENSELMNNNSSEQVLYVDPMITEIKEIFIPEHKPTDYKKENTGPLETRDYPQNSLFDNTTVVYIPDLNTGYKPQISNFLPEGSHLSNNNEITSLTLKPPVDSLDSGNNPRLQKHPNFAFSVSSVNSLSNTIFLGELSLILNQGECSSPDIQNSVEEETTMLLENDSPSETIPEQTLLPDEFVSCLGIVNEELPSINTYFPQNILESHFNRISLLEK


Biological target: T1, interleukin-23 receptor (IL-23R), Q5VWK5
Assay: cell-based or functional assay

Binder	PBMC pSTAT3 IC50 [nM]	IL23R Reporter Assay IC50 [µM]
R[Pen]ET[Trp(7-Me)]K(Ac)[Pen][AEF][2Nal(6-OH)][Thp]KN[3Pal][Sar] (not fully specified (bridges); ends and bridges not checked; also: K11: lipidated lysine) [SEQ ID NO: 420]	< 0.1	–
[Pen]NT[Trp(7-Me)]K(Ac)[Pen][2‑amino‑3‑(4-(2-aminoethoxy)phenyl)propanoic acid][2‑amino‑3‑(6-hydroxynaphthalen-2-yl)propanoic acid][Thp]KN[3Pal][Sar] (not fully specified (bridges); ends and bridges not checked; also: K10: lipidated lysine, lipid not given here) [SEQ ID NO: 80]	–	< 0.01
R[Pen]NT[Trp(7-Me)]K(Ac)[Pen][2‑amino‑3‑(4-(2-aminoethoxy)phenyl)propanoic acid][2‑amino‑3‑(6-hydroxynaphthalen-2-yl)propanoic acid][Thp]EN[X5][Sar] (disulfide 2-7 (inferred); ends not checked) [SEQ ID NO: 440]	> 1	–
R[Pen]NT[Trp(7-Me)]K(Ac)[Pen][2‑amino‑3‑(4-(2-aminoethoxy)phenyl)propanoic acid][2‑amino‑3‑(6-(3-(trifluoromethyl)-1H-pyrazol-4-yl)naphthalen-2-yl)propanoic acid][Thp]EN[Thp] (not fully specified (bridges); ends and bridges not checked) [SEQ ID NO: 434]	> 1	–
[Pen]NT[Trp(7-Me)]K[Pen][2‑amino‑3‑(4-(2-aminoethoxy)phenyl)propanoic acid][2‑amino‑3‑(6-hydroxynaphthalen-2-yl)propanoic acid][Thp]K(Ac)N[3Pal][Sar] (not fully specified (bridges); ends and bridges not checked; also: K5: lipidated lysine, lipid not given here) [SEQ ID NO: 81]	–	< 0.01
K[Pen]ET[Trp(7-Me)]K(Ac)[Pen][AEF][2Nal(6-OH)][Thp]K(Ac)N[3Pal][Sar] (not fully specified (bridges); ends and bridges not checked; also: lipidated Lys1, lipid not given here) [SEQ ID NO: 423]	< 1	–
K[Pen]ET[Trp(7-Me)]K(Ac)[Pen][2‑amino‑3‑(4-(2-aminoethoxy)phenyl)propanoic acid][2‑amino‑3‑(6-hydroxynaphthalen-2-yl)propanoic acid][Thp]EN[3Pal][Sar] (not fully specified (residue 1, bridges); ends and bridges not checked; also: Lys1: lipidated lysine, lipid not given here) [SEQ ID NO: 395]	< 1	–
[Pen]NT[Trp(7-Me)]K(Ac)[Pen][2‑amino‑3‑(4-(2-aminoethoxy)phenyl)propanoic acid][2‑amino‑3‑(6-hydroxynaphthalen-2-yl)propanoic acid][Thp]K(Ac)N[3Pal][Sar]K(lipid) (disulfide 1-6 (inferred); ends not checked; also: K14: lipidated lysine) [SEQ ID NO: 277]	< 1	–
K[Pen]NT[Trp(7-Me)]K(Ac)[Pen][2‑amino‑3‑(4-(2-aminoethoxy)phenyl)propanoic acid][2‑amino‑3‑(6-hydroxynaphthalen-2-yl)propanoic acid][Thp]K(Ac)N[3Pal][Sar] (not fully specified (residue 1, bridges); ends and bridges not checked; also: Lys1 lipidated (lipid not given here)) [SEQ ID NO: 427]	< 1	–
R[Pen]NT[Trp(7-Me)]K(Ac)[Pen][2‑amino‑3‑(4-(2-aminoethoxy)phenyl)propanoic acid][3‑(6-(1H-pyrazol-4-yl)naphthalen-2-yl)‑2‑aminopropanoic acid][Thp]EN[Thp] (not fully specified (bridges); ends and bridges not checked) [SEQ ID NO: 433]	> 1	–
R[Pen]NT[Trp(7-Me)]K(Ac)[Pen][2‑amino‑3‑(4-(2-aminoethoxy)phenyl)propanoic acid][2‑amino‑3‑(6-(4-methoxyphenyl)naphthalen-2-yl)propanoic acid][Thp]EN[Thp] (disulfide 2-7 (inferred); ends not checked) [SEQ ID NO: 438]	> 1	–
R[Pen]NT[Trp(7-Me)]K(Ac)[Pen][N,N,N‑trimethylethanaminium][2‑amino‑3‑(6-hydroxynaphthalen-2-yl)propanoic acid][Thp]EN[3Pal][Sar] (disulfide 2-7 (inferred); not fully specified; ends not checked) [SEQ ID NO: 436]	< 1	–
[Pen]NT[Trp(7-Me)]K(Ac)[Pen][AEF][2Nal(6-OH)][Thp]K(Ac)N[3Pal][Sar]K (not fully specified (bridges); ends and bridges not checked; also: K14: lipidated lysine, lipid not given here) [SEQ ID NO: 72]	–	< 0.01
R[Pen]NT[Trp(7-Me)]K(Ac)[Pen][2‑amino‑3‑(4-(2-aminoethoxy)phenyl)propanoic acid][2‑amino‑3‑(6-hydroxynaphthalen-2-yl)propanoic acid][Thp]EN[3Pal][Sar]K (disulfide 2-7 (inferred); not fully specified (residue 15); ends not checked; also: K15: lipidated lysine) [SEQ ID NO: 269]	< 1	–
[Pen]NT[Trp(7-Me)]K(Ac)[Pen][2‑amino‑3‑(4-(2-aminoethoxy)phenyl)propanoic acid][2‑amino‑3‑(6-hydroxynaphthalen-2-yl)propanoic acid][Thp]K(Ac)N[3Pal][Sar]K(lipid) (disulfide 1-6 (inferred); ends not checked; also: K14: lipidated lysine) [SEQ ID NO: 271]	< 1	–
R[Pen]KT[Trp(7-Me)]K(Ac)[Pen][AEF][2Nal(6-OH)][Thp]EN[3Pal][Sar] (not fully specified (residue 3, bridges); ends and bridges not checked; also: K3: lipidated lysine) [SEQ ID NO: 425]	< 1	–
K[Pen]NT[Trp(7-Me)]K(Ac)[Pen][2‑amino‑3‑(4-(2-aminoethoxy)phenyl)propanoic acid][2‑amino‑3‑(6-hydroxynaphthalen-2-yl)propanoic acid][Thp]EN[3Pal][Sar] (disulfide 2-7 (inferred); not fully specified (residue 1); ends not checked; also: K1: lipidated lysine) [SEQ ID NO: 268]	< 1	–
R[Pen]NT[Trp(7-Me)]K(Ac)[Pen][N,N,N‑trimethylethanaminium][2‑amino‑3‑(6-hydroxynaphthalen-2-yl)propanoic acid][Thp]EN[3Pal][Sar] (disulfide 2-7 (inferred); not fully specified; ends not checked) [SEQ ID NO: 435]	< 0.1	–
R[Pen]NTWK(Ac)[Pen][X3][2Nal(6-OH)][Thp]EN[3Pal][Sar] (not fully specified (bridges); ends and bridges not checked) [SEQ ID NO: 73]	–	< 0.01
R[Pen]ET[Trp(7-Me)]K(Ac)[Pen][AEF][2Nal(6-OH)][Thp]K(Ac)N[3Pal][Sar] (not fully specified (bridges); ends and bridges not checked) [SEQ ID NO: 421]	< 1	–
[Pen]NT[Trp(7-Me)]K(Ac)[Pen][5‑(4-(2-amino-2-carboxyethyl)phenoxy)‑N,N,N‑trimethylpentan‑1‑aminium][2Nal(6-OH)][Thp]EN[3Pal][Sar] (not fully specified (bridges); ends and bridges not checked) [SEQ ID NO: 75]	–	< 0.01
R[Pen]NT[Trp(7-Me)]K(Ac)[Pen][AEF][2Nal(6-OH)][Thp]EN[X6][Sar] (not fully specified (bridges); ends and bridges not checked) [SEQ ID NO: 419]	< 0.1	–
